Test results taken from the MegaScale stability set (Tsuboyama et al. 2023).

B1: 2M8U (parent)
chain: TKAQVIEAFKVFDRDGNGYVTVDYLRKVLNELGDMMPADEIEEMIYEADPQNSGYVQYETFVGMLFL

Variants of: B1
Assay: folding stability dG (cDNA display proteolysis); higher = more stable
Details: PBS, room temperature

Folding stability dG [kcal/mol]: each site, then its substitutions
E7: Y 2.7 | K 3.1 | N 3.17 | S 2.76 | V 3.08 | W 2.42 | L 3.28 | H 2.93 | Q 2.96 | F 2.86 | A 3.46
A3: T 3.14 | D 3.28 | S 3.46 | M 3.24 | I 3.27 | L 3.21 | F 3 | V 3.2 | R 3.23 | Q 3.56 | C 3.48 | Y 2.81 | P 2.67 | E 3.69 | W 2.9 | G 2.93 | N 3.25 | K 3.31 | H 3.22
F9: A 2.63 | T 2.47 | N 2.22 | M 3.82 | E 1.96 | K 2.18 | W 1.95 | Y 2.1 | Q 2.08 | L 4.1 | G 2.1 | I 4.09 | P 2.32 | H 2.14 | R 1.98 | V 3.27 | S 2.13 | C 3.12 | D 1.85
K10: D 2.26 | N 2.74 | P 2.08 | A 3.13 | E 3.02 | L 3.25 | G 2.97 | H 2.88 | Q 3.16 | C 3.51 | I 3.32 | F 3.21 | M 3.15
V5: Y 4.08 | Q 2.09 | F 3.59 | C 3.17 | N 2.04 | L 3.95 | W 4.09 | H 2.36 | K 1.82 | M 3.85 | S 2.1 | P 1.77 | T 2.49 | E 1.95 | R 1.91 | A 2.77 | D 1.89 | I 3.81 | G 1.89
Q4: S 3.47 | V 3.02 | I 3.15
